Assay results: US20160280799

Target: All other MMP-12 binders

B1: human MMP-12 catalytic domain (protein)
chain: GPVWRKHYITYRINNYTPDMNREDVDYAIRKAFQVWSNVTPLKFSKINTGMADILVVFARGAHGDFHAFDGKGGILAHAFGPGSGIGGDAHFDEDEFWTTHSGGTNLFLTAVHEIGHSLGLGHSSDPKAVMFPTYKYVDINTFRLSADDIRGIQSLYG
MMP-12 proteolytic activity, colorimetric assay (BIOMOL AK-402), VHH at 7 µM: did not inhibit MMP-12
